Km, kcat and kcat/Km data for 1 substance are collected here from patent publication US20030113711A1, “Protein kinase peptide substrate determination using peptide libraries” (priority 2001, published 2003).

A word on the Km: it is the concentration of substrate that gives half-maximal velocity. As usually defined, the kcat is the maximal rate divided by the concentration of active sites. What is called kcat/Km is the turnover number divided by the Michaelis constant.

What all share (experiment): Kinetic evaluation of peptide substrates, varying peptide at fixed ATP (phosphocellulose filter, [γ-33P]ATP)
Common to all, as to type: biochemical
Holding throughout (conditions): other: ErbB-2; Km for peptide; ATP concentration >10 × Km (200 μM ATP); pH 7.5; 23.0 °C

Data set [1] concerns C[C@H](NC(=O)[C@H](CCCNC(=N)N)NC(=O)CCCCCNC(=O)CCCC[C@@H]1SC[C@@H]2NC(=O)N[C@@H]21)C(=O)N[C@@H](Cc1c[nH]cn1)C(=O)N[C@@H](Cc1c[nH]cn1)C(=O)N[C@@H](CCC(=O)O)C(=O)N[C@@H](CCC(=O)O)C(=O)N[C@@H](Cc1ccc(O)cc1)C(=O)N[C@@H](Cc1c[nH]cn1)C(=O)N[C@@H](Cc1ccccc1)C(=O)N[C@@H](Cc1ccccc1)C(=O)N[C@@H](Cc1ccccc1)C(=O)N[C@@H](C)C(=O)N[C@@H](CCCCN)C(=O)N[C@@H](CCCCN)C(=O)N[C@@H](CCCCN)C(N)=O. On the procedure: (§1) Peptide sequences identified as preferred substrates for ErbB-2 using the methods described in Laboratory Example 3 were synthesized. The kcat and Km values for each peptide were determined as follows, using the kinases ErbB-2, ErbB-4, and EGFR.
(§2) Reactions were performed in 96-well polystyrene round bottom plates in a final volume of 45 μL. Reaction mixtures contained 50 mM MOPS, pH 7.5, 10 mM MnCl2, 1 mM dithiothreitol (DTT), 200 μM ATP, 1.0 μCi [γ-^33P] ATP, and varying concentrations of peptide. The reaction was initiated by adding the purified kinase of interest and halted after 10 minutes at 23° C. (room temperature) by adding 45 μL of 0.5% phosphoric acid in water. A 75 μL aliquot of the halted reaction mixture was then transferred to MAPH phosphocellulose filter plates (Millipore, Bedford, Mass.). The plates were filtered three times with 0.2 mL of 0.5 percent phosphoric acid. Scintillation cocktail (50 μL) was added to each well, and the plate was analyzed by counting in a Packard TOPCOUNT® scintillation counter (Packard Instrument Co., Meriden, Conn.). In these assays, the concentration of ATP was greater than ten-fold higher than the Km for ATP, which permitted the kinetic data to be treated as a pseudo-first-order reaction with varying peptide concentration. All experiments were performed in quadruplicate and the average value for each data point was analyzed. The Km and Vmax values were calculated by fitting the data to the Henri-Michaelis-Menten equation by non-linear regression using SIGMAPLOT® (SPSS Science, Chicago, Ill.). kcat values were calculated using the Vmax value, and are based on the protein concentration of the enzyme preparation and an estimate of purity determined from an evaluation of a Coomassie Blue stained SDS-polyacrylamide gel.

For data set [2], the system named is CC[C@H](C)[C@H](NC(=O)[C@H](CCC(=O)O)NC(=O)[C@H](CCC(=O)O)NC(=O)[C@H](Cc1c[nH]cn1)NC(=O)[C@H](C)NC(=O)[C@H](CCCNC(=N)N)NC(=O)CCCCCNC(=O)CCCC[C@@H]1SC[C@@H]2NC(=O)N[C@@H]21)C(=O)N[C@@H](Cc1ccc(O)cc1)C(=O)N[C@@H](Cc1c[nH]cn1)C(=O)N[C@@H](Cc1ccccc1)C(=O)N[C@@H](Cc1ccccc1)C(=O)N[C@@H](Cc1ccccc1)C(=O)N[C@@H](C)C(=O)N[C@@H](CCCCN)C(=O)N[C@@H](CCCCN)C(=O)N[C@@H](CCCCN)C(N)=O. On the procedure:
as §1, §2

Data set [3] concerns CC[C@H](C)[C@H](NC(=O)[C@H](Cc1ccccc1)NC(=O)[C@H](Cc1c[nH]cn1)NC(=O)[C@H](Cc1ccc(O)cc1)NC(=O)[C@H](CCC(=O)O)NC(=O)[C@H](CCC(=O)O)NC(=O)[C@H](CCC(=O)O)NC(=O)[C@H](Cc1c[nH]cn1)NC(=O)[C@H](C)NC(=O)[C@H](CCCNC(=N)N)NC(=O)CCCCCNC(=O)CCCC[C@@H]1SC[C@@H]2NC(=O)N[C@@H]21)C(=O)N[C@@H](Cc1ccccc1)C(=O)N[C@@H](C)C(=O)N[C@@H](CCCCN)C(=O)N[C@@H](CCCCN)C(=O)N[C@@H](CCCCN)C(N)=O. The protocol: as §1, §2

In the case of ErbB-2 (Homo sapiens), in data set [1], the Michaelis-Menten constant (Km) was 14.7 µM, the kcat was 0.09 s⁻¹ and the catalytic efficiency (kcat/Km) was found to be 6170 M⁻¹ s⁻¹. Further, in data set [2], the Km was determined as 11.4 µM, the kcat is 0.0967 s⁻¹ and the kcat/Km was 8500 M⁻¹ s⁻¹. In addition, in data set [3], the Km stood at 8.6 µM, the kcat came to 0.0333 s⁻¹ and the kcat/Km was 3830 M⁻¹ s⁻¹.
